Measurements: patent US10118947B2, “Modulation of structured polypeptide specificity” (BICYCLE THERAPEUTICS LIMITED, priority 2013, dated 2018)
Numbered stars: 1 amine (or outer) side, 2 acyl side, 3 side chain; on linkers, the order of the positions; unused ones are H or OH. Bridge positions count the residues as written; N and C are the ends. Square brackets hold non-standard residues; d marks the D form. Peptide text beside a SMILES is read from it. Gly(N-CH2CH2-imidazol-4-yl) = O=C(O)CNCCc1c[nH]cn1; TBMB = c1c(C[*:1])cc(C[*:3])cc1C[*:2]; Dpg = CCCC(N)(CCC)C(=O)O; Aze = O=C(O)[C@@H]1CCN1; βAla = NCCC(=O)O

Biological target: T1, human plasma Kallikrein (Homo sapiens, UniProt P03952)
T1 construct: purchased Stratech, UK
T1 sequence (P03952 20-638): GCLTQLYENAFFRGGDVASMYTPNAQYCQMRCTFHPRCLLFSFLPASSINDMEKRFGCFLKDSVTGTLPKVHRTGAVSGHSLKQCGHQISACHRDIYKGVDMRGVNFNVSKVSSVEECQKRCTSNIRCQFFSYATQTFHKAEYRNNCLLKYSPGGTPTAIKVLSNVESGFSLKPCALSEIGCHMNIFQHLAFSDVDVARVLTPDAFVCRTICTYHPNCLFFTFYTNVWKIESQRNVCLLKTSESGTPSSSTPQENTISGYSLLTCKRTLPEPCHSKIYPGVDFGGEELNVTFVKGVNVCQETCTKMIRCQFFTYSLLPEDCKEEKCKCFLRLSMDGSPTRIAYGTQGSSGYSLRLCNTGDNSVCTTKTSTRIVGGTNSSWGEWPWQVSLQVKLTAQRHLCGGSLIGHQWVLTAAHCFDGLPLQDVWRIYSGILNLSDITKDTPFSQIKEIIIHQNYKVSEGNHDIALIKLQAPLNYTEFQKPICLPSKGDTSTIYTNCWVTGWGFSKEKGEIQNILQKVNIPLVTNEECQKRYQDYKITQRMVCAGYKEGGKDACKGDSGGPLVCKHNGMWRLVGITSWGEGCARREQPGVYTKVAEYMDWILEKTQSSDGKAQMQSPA
Assay: Phage selections against human plasma Kallikrein (abundance in selection output)
Type: binding
Conditions: Table 17; relative abundance in the total selection outputs
Experimental: Glycerol stocks of phage libraries were diluted to OD600=0.1 in 500 ml 2YT/chloramphenicol (30 μg/ml) cultures and phage were produced at 30° C. over night (15-16 hrs). Phage were purified and chemically modified as described in Heinis, et al., Nat Chem Biol 2009, 5 (7), 502-7 Biotinylated hPK (3 μg) (IHPKA, from human plasma, Innovative Research, Novi, Mich., USA) was incubated with 50 μl pre-washed magnetic streptavidin beads (Dynal, M-280 from Invitrogen, Paisley, UK) for 10 minutes at RT. Beads were washed 3 times prior to blocking with 0.5 ml washing buffer (10 mM Tris-Cl, pH 7.4, 150 mM NaCl, 10 mM MgCl2, 1 mM CaCl2) containing 1% BSA and 0.1% Tween 20 for 30 minutes at RT with rotation. […] Blocked beads were then mixed with the blocked chemically modified phage and incubated for 30 minutes on a rotating wheel at
RT. Beads were washed 8 times with washing buffer containing 0.1% Tween 20 and twice with washing buffer before incubation with 100 μl of 50 mM glycine, pH 2.2 for 5 minutes. Eluted phage were transferred to 50 μl of 1 M Tris-Cl, pH 8 for neutralization, incubated with 30 ml TG1 cells at OD600=0.4 for 90 minutes at 37° C. and the cells were plated on large 2YT/chloramphenicol plates. One or two additional rounds of panning were performed using the same procedures. In the second round of selection, neutravidin-coated magnetic beads were used to prevent the enrichment of streptavidin-specific peptides. The neutravidin beads were prepared by reacting 0.8 mg neutravidin (Pierce, Rockford, Ill., USA) with 0.5 ml tosyl-activated magnetic beads (Dynal, M-280 from Invitrogen, Paisley, UK) according to the supplier's instructions.
The WPAR (SEQ ID No. 19) motif identified from Example 1 was analysed in the context of the 06-34-03 peptide, in order to identify alternatives or improvements to the WPAR motif. A library was constructed where positions 1, 6, 7, 8, 9 &10 of 06-34-03 were fixed and positions 2, 3, 4 & 5 were randomised (see ‘Randomisation of peptide domains—Library construction’ in Methods above). Selections against human plasma Kallikrein were performed at a variety of stringencies (see Phage selections' in Methods above). All output sequences were identified and analysed for target binding (see ‘Randomisation of peptide domains—Assay of binding of individual clones’ in Methods above). Table 17 lists each unique sequence, its relative abundance in the selection output (frequency), and a rank number according to target binding strength.

FREQUENCY	Compound
8	CSWLARCTHQDLC
24	CSWPARCTHQDLC
7	CSWPFRCTHQDLC
51	CSWPSRCTHQDLC
1	CSWPYKCTHQDLC
3	CSWPYRCTHQDLC
1	CSWQARCTHQDLC
10	CSWSARCTHQDLC
1	CSWSYRCTHQDLC
1	CSWWARCTHQDLC
1	CSYPFRCTHQDLC
2	CSYPIRCTHQDLC
1	CSYPWRCTHQDLC
2	CSYPYRCTHQDLC

Biological target: T1, human plasma Kallikrein
Assay: Functional enzyme inhibition assay with fluorogenic substrate Z-PheArg-AMC, human plasma Kallikrein
Type: biochemical
Conditions: not given
Procedure, shortened: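 Rates of AMC release (excitation 360 nm, emission 460 nm) from 100 μM final Z-PheArg-AMC, 4% DMSO, were taken over the linear phase, typically 5 to 45 minutes. IC50 from four-parameter non-linear regression; Ki also derived.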

affinity surpassing that of wildtype by a factor	Compound	reduction in potency/affinity compared to wildtype
3	CC(=O)N[C@H]1CSCc2cc3cc(c2)CSC[C@H](NC(=O)[C@H](CCCNC(=N)N)NC(=O)[C@H](C)NC(=O)[C@@H]2CCN2C(=O)[C@H](Cc2c[nH]c4ccccc24)NC(=O)[C@H](CO)NC1=O)C(=O)N[C@@H](CC(C)C)C(=O)N[C@@H](Cc1c[nH]cn1)C(=O)N[C@@H](CCC(N)=O)C(=O)N[C@@H](CC(=O)O)C(=O)N[C@@H](CC(C)C)C(=O)N[C@H](C(N)=O)CSC3 [Ac-(06-34-18) Aze3] (Ac-CSW[Aze]ARCLHQDLC-NH2; linker 1-7-13 via TBMB)	
	CC(=O)N[C@H]1CSCc2cc3cc(c2)CSC[C@H](NC(=O)[C@H](CCCNC(=N)N)NC(=O)[C@H](C)NC(=O)[C@@H]2CCCN2C(=O)[C@H](Cc2ccccc2)NC(=O)[C@H](CO)NC1=O)C(=O)N[C@@H](CC(C)C)C(=O)N[C@@H](Cc1c[nH]cn1)C(=O)N[C@@H](CCC(N)=O)C(=O)N[C@@H](CC(=O)O)C(=O)N[C@@H](CC(C)C)C(=O)N[C@H](C(N)=O)CSC3 [Ac-(06-34-18) FPAR] (Ac-CSFPARCLHQDLC-NH2; linker 1-7-13 via TBMB)	40 fold

Same assay, conditions: Table 14; read-out: Ki (nM) (human kallikrein)

Compound	Ki
CCCC1(CCC)NC(=O)[C@@H](NC(C)=O)CSCc2cc3cc(c2)CSC[C@H](NC(=O)[C@H](CCCNC(=N)N)NC(=O)[C@H](C)NC(=O)[C@@H]2CCCN2C(=O)[C@H](Cc2c[nH]c4ccccc24)NC1=O)C(=O)N[C@@H](CC(C)C)C(=O)N[C@@H](Cc1c[nH]cn1)C(=O)N[C@@H](CCC(N)=O)C(=O)N[C@@H](CC(=O)O)C(=O)N[C@@H](CC(C)C)C(=O)N[C@H](C(N)=O)CSC3 [Ac-(06-34-18) Dpg1] (Ac-C[Dpg]WPARCLHQDLC-NH2; linker 1-7-13 via TBMB)	1.09 nM

Same assay, conditions: read-out: Ki / affinity to human Kallikrein

Compound	Ki
CCCC1(CCC)NC(=O)[C@@H](NC(C)=O)CSCc2cc3cc(c2)CSC[C@H](NC(=O)[C@H](CCCNC(=N)N)NC(=O)[C@H](C)NC(=O)[C@@H]2CCCN2C(=O)[C@H](Cc2c[nH]c4ccccc24)NC1=O)C(=O)N[C@@H](CC(C)C)C(=O)N[C@@H](Cc1c[nH]cn1)C(=O)N[C@@H](CCC(N)=O)C(=O)N[C@@H](CC(=O)O)C(=O)N[C@@H](CC(C)C)C(=O)N[C@H](C(N)=O)CSC3 [Ac-(06-34-18) Dpg1] (Ac-C[Dpg]WPARCLHQDLC-NH2; linker 1-7-13 via TBMB)	1.1 nM

Tested on: not listed separately
Assay: Plasma stability profiling Method #1 (MALDI-TOF, 35% plasma), rat plasma
Type: in vitro ADME
Conditions: Table 13; method #1
Experimental: A rapid plasma stability profiling assay was developed that employed mass spectrometric detection (MALDI-TOF, Voyager DE, Applied Biosystems) of the parent mass, until the time when the parent peptide mass was no longer observable. Specifically, 200 uM of peptide was incubated in the presence of 35% rat or human plasma (Sera labs, using citrate as anticoagulant) at 37 deg C., which was supplemented with 1×PBS (derived from a 10×PBS Stock, Sigma). At various time points (i.e. t=0, 3, 24 hrs, henceafter daily up to 10 days), 2 uL of sample was added to 18 uL of 30 mM ammonium bicarbonate in a 1:1 mixture of acetonitrile:H2O. Samples were frozen at −80 deg C. until the time of analysis. For mass spectrometric analysis that determines the approximate detection window of the peptide, the acetonitrile:H2O-diluted sample of a given time point was spotted directly (0.7 uL) onto the MALDI plate. Matrix (alpha-cyanocinnamic acid, Sigma, prepared as a saturated solution in 1:1 acetonitrile:water containing 0.1% trifluoroacetic acid) was layered over the sample (1 uL). At a similar laser intensity setting on the MALDI TOF, the time could then be determined until parent peptide was no longer detectable. It should be noted that this is a qualitative assay serves to detect relative changes in plasma stability.

Observable in rat plasma, for days	Compound
2 days	CC(=O)N[C@H]1CSCc2cc3cc(c2)CSC[C@H](NC(=O)[C@H](CCCNC(=N)N)NC(=O)[C@H](C)NC(=O)[C@@H]2CCN2C(=O)[C@H](Cc2c[nH]c4ccccc24)NC(=O)[C@H](CO)NC1=O)C(=O)N[C@@H](CC(C)C)C(=O)N[C@@H](Cc1c[nH]cn1)C(=O)N[C@@H](CCC(N)=O)C(=O)N[C@@H](CC(=O)O)C(=O)N[C@@H](CC(C)C)C(=O)N[C@H](C(N)=O)CSC3 [Ac-(06-34-18) Aze3] (Ac-CSW[Aze]ARCLHQDLC-NH2; linker 1-7-13 via TBMB)

Same assay, conditions: Table 14; method #1

Compound	Observable in rat plasma, for days
CCCC1(CCC)NC(=O)[C@@H](NC(C)=O)CSCc2cc3cc(c2)CSC[C@H](NC(=O)[C@H](CCCNC(=N)N)NC(=O)[C@H](C)NC(=O)[C@@H]2CCCN2C(=O)[C@H](Cc2c[nH]c4ccccc24)NC1=O)C(=O)N[C@@H](CC(C)C)C(=O)N[C@@H](Cc1c[nH]cn1)C(=O)N[C@@H](CCC(N)=O)C(=O)N[C@@H](CC(=O)O)C(=O)N[C@@H](CC(C)C)C(=O)N[C@H](C(N)=O)CSC3 [Ac-(06-34-18) Dpg1] (Ac-C[Dpg]WPARCLHQDLC-NH2; linker 1-7-13 via TBMB)	2 days
CC(=O)N[C@H]1CSCc2cc3cc(c2)CSC[C@H](NC(=O)[C@H](CCCNC(=N)N)NC(=O)CCNC(=O)[C@@H]2CCCN2C(=O)[C@H](Cc2c[nH]c4ccccc24)NC(=O)[C@H](CO)NC1=O)C(=O)N[C@@H](CC(C)C)C(=O)N[C@@H](Cc1c[nH]cn1)C(=O)N[C@@H](CCC(N)=O)C(=O)N[C@@H](CC(=O)O)C(=O)N[C@@H](CC(C)C)C(=O)N[C@H](C(N)=O)CSC3 [Ac-(06-34-18) β-Ala4] (Ac-CSWP[βAla]RCLHQDLC-NH2; linker 1-7-13 via TBMB)	10 days

Same assay, conditions: Table 21; method #1

Observable in rat plasma, for days	Compound
2 days	CC(=O)N[C@H]1CSCc2cc3cc(c2)CSC[C@H](NC(=O)[C@H](CCCNC(=N)N)NC(=O)[C@H](CO)NC(=O)[C@@H]2CCCN2C(=O)[C@H](Cc2c[nH]c4ccccc24)NC(=O)[C@H](CO)NC1=O)C(=O)N[C@@H](CC(C)C)C(=O)N[C@@H](Cc1c[nH]cn1)C(=O)N[C@@H](CCC(N)=O)C(=O)N[C@@H](CC(=O)O)C(=O)N[C@@H](CC(C)C)C(=O)N[C@H](C(N)=O)CSC3 [Ac-(06-34-18) WPSR] (Ac-CSWPSRCLHQDLC-NH2; linker 1-7-13 via TBMB)
2 days	CC(=O)N[C@H]1CSCc2cc3cc(c2)CSC[C@H](NC(=O)[C@H](CCCNC(=N)N)NC(=O)[C@H](Cc2ccc(O)cc2)NC(=O)[C@@H]2CCCN2C(=O)[C@H](Cc2c[nH]c4ccccc24)NC(=O)[C@H](CO)NC1=O)C(=O)N[C@@H](CC(C)C)C(=O)N[C@@H](Cc1c[nH]cn1)C(=O)N[C@@H](CCC(N)=O)C(=O)N[C@@H](CC(=O)O)C(=O)N[C@@H](CC(C)C)C(=O)N[C@H](C(N)=O)CSC3 [Ac-(06-34-18) WPYR] (Ac-CSWPYRCLHQDLC-NH2; linker 1-7-13 via TBMB)

Compound	Observable in rat plasma, for days
CC(=O)N[C@H]1CSCc2cc3cc(c2)CSC[C@H](NC(=O)[C@H](CCCNC(=N)N)NC(=O)[C@H](C)NC(=O)[C@@H]2CCCN2C(=O)[C@H](Cc2ccccc2)NC(=O)[C@H](CO)NC1=O)C(=O)N[C@@H](CC(C)C)C(=O)N[C@@H](Cc1c[nH]cn1)C(=O)N[C@@H](CCC(N)=O)C(=O)N[C@@H](CC(=O)O)C(=O)N[C@@H](CC(C)C)C(=O)N[C@H](C(N)=O)CSC3 [Ac-(06-34-18) FPAR] (Ac-CSFPARCLHQDLC-NH2; linker 1-7-13 via TBMB)	2 days

Tested on: not listed separately
Assay: Plasma stability / fragment profiling Method #2 (MALDI-TOF, 95% plasma), human plasma
Type: in vitro ADME
Conditions: running text and figure legends
Experimental: To obtain stability data more rapidly, peptides were also assessed in 95% plasma. Here, PBS was omitted, and a 1 mM peptide stock (in DMSO) was directly diluted into plasma (i.e. 2.5 uL stock into 47.5 uL plasma), giving a final concentration of 50 uM. 5 uL samples were taken at appropriate time points and frozen at −80 deg C. For analysis, the samples were defrosted, mixed with 15 uL of 1:1 acetonitrile:methanol, and centrifuged at 13 k for 5 min. 5 uL of the peptide-containing supernatant was aspirated and mixed with 30 mM ammonium bicarbonate in a 1:1 mixture of acetonitrile:H2O. 1 uL of this was then spotted on the MALDI plate and analysed as described above. As above, it should be noted that this is a qualitative assay serves to detect relative changes in plasma stability.
Ac-06-34-18(TMB)-NH2 Phe2 Tyr4 (referred to as wild type peptide) was subsequently subjected to human plasma, and analysed for fragments to appear over time. This was compared to the degradation profile observed in human plasma using the NMe-Arg5 derivative of 06-34-18 (FIGS. 18a and 18b). Fragmentation was determined according to Method #2.

Compound	degradation / fragments in human plasma (in words)
CC(=O)N[C@H]1CSCc2cc3cc(c2)CSC[C@H](NC(=O)[C@H](CCCNC(=N)N)NC(=O)[C@H](Cc2ccc(O)cc2)NC(=O)[C@@H]2CCCN2C(=O)[C@H](Cc2ccccc2)NC(=O)[C@H](CO)NC1=O)C(=O)N[C@@H](CC(C)C)C(=O)N(CCc1c[nH]cn1)CC(=O)N[C@@H](CCC(N)=O)C(=O)N[C@@H](CC(=O)O)C(=O)N[C@@H](CC(C)C)C(=O)N[C@H](C(N)=O)CSC3 [Ac-(06-34-18) Phe2 Tyr4 N-His] (Ac-CSFPYRCL[Gly(N-CH2CH2-imidazol-4-yl)]QDLC-NH2; linker 1-7-13 via TBMB)	significantly enhanced stability in loop2
